Target: chaperone receptors within native chloroplast membranes (dynamic TIRE)
Assay: total internal reflection ellipsometry (TIRE); dynamic: pea chloroplast membranes on Cr/Au slides; time course of Δ at 700 nm over 15 min at chaperone concentrations from 1 to 10 µg/ml in 100 mM Tris-HCl pH 8.0; 1/τ against concentration fitted to a line, KA = ka/kd

Hsp70-1 (At5g02500), full length, sequence (P22953 whole entry): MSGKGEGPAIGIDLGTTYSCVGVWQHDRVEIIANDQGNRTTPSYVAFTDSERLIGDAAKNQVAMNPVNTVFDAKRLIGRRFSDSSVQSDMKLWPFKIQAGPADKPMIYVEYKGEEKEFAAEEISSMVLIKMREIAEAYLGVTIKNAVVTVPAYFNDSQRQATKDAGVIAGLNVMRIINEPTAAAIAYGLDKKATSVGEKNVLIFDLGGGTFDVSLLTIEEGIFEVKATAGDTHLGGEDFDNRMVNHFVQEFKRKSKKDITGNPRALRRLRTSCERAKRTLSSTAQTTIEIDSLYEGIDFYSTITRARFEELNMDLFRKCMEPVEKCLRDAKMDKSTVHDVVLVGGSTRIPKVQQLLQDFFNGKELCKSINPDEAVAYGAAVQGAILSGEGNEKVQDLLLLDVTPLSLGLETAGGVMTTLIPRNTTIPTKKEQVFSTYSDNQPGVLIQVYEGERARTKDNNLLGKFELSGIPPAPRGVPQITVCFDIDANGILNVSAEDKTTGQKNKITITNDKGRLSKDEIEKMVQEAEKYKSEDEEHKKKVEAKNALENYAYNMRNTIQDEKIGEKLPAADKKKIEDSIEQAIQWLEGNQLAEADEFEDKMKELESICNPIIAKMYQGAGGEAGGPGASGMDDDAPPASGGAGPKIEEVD
Hsp90-2 (At5g56030), full length, sequence (P55737 whole entry): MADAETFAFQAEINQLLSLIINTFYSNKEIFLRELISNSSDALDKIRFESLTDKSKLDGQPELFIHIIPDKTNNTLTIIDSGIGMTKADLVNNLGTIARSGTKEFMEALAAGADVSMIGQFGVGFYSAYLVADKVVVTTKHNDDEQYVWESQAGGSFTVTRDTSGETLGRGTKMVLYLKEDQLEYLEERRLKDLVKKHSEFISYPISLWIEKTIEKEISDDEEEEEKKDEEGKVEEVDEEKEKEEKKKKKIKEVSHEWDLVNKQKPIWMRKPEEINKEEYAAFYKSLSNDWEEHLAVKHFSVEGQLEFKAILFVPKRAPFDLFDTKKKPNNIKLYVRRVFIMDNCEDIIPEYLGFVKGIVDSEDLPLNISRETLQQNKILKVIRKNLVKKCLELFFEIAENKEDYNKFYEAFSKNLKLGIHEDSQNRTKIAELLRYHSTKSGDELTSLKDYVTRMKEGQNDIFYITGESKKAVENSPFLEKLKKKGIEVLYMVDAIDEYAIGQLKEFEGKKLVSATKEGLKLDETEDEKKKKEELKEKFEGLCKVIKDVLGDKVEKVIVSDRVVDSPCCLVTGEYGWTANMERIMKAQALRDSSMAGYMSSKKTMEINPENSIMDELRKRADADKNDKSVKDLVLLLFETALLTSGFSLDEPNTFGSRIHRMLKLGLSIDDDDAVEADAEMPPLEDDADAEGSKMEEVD

Substance	Ka
Hsp70-1 (At5g02500), full length (from UniProt P22953 1-651) (natural protein)	9.15e+06 M⁻¹
Hsp90-2 (At5g56030), full length (from UniProt P55737 1-699) (natural protein)	8.74e+06 M⁻¹
